Data on twelve molecules can be found in patent US20230348573A1 (KEIO UNIVERSITY, published 2023).

Experiment [1] has as its target T1, full-length spike protein of SARS-CoV-2 (Wuhan strain) (SARS-CoV-2 (Wuhan strain), UniProt P0DTC2 14-1273).
T1 construct: whole, on cells; Expressed in 293T cells
Briefly: ACE2 competition, spike on 293T cells, antibody 4 µg/mL.

The target of experiment [2] is spike protein of SARS-CoV-2 (Wuhan strain) on pseudovirus (SARS-CoV-2 (Wuhan strain), UniProt P0DTC2 14-1254). The experiment can be described thus: cell-based or functional assay.
Experiment [3] deals with T2, RBD derived from SARS-CoV-2 (Wuhan strain) (SARS-CoV-2 (Wuhan strain), UniProt P0DTC2 319-541).
T2 construct: domain: RBD
Briefly: RBD beads, antibody 4 µg/mL, then labelled ACE2, flow cytometry.

Experiment [4] addresses T2, RBD derived from SARS-CoV-2 (Wuhan …). The experiment can be described thus: RBD beads, antibody 0.25 µg/mL, then labelled ACE2, flow cytometry. A general note: A flow cytometer gives signals particle by particle.
Experiment [5] shares this target. Briefly: RBD beads, antibody 1 µg/mL, then labelled ACE2, flow cytometry.

B1: Ab803 (antibody, V domains shown)
VH: EVQLVESGGGLVQPGRSLRVSCAASGFTFDDYAMHWVRQTPRKGLEWVAGISRNSAAIAYADSVKGRFTISRDNAKNSVFLQMNGLRADDTALYYCVKSPRYGWGSPDYSFDFWGRGTLVTVSS
VL: DIQLTQSPSSLSASVGDRVTITCRASQNIGTYLNWYQQEPGKAPKLLIYAASSLQSGVPSRFSGSGSGTDFTLTISSLQPEDFATYCCQQSFTTPLTFGQGTKVEIK
On to B1, for which the “binding amount (%) of ACE2 protein” value in experiment [1] was 0.9%. For the same molecule, in experiment [2], the “IC50 of pseudovirus infection (luciferase)” value (“IC50 of pseudovirus infection” for short) turned out to be 0.0468 µg/mL.

B2: Ab816 (antibody, V domains shown)
VH: QVQLVQSGAEVKKPGESLMISCKASGYNFRNYWIAWVRQMPGKGLEWMGIIHPGDSDIRYRPSLQGHVTISADKSITTAYLQWGSLKASDTAMYYCTRITTDADSSGLFHYWGQGTLVTVSS
VL: EIVLTQSPSTLSASVGDRVTITCRASQNIYTWLAWYQRKPGKAPKVLIYKASSLESGVPSRFSGSGSGTEFTLTISSLQPDDFATYYCQQYKSAWSFGQGTKVEIK
For the molecule B2, in experiment [1], the “binding amount (%) of ACE2 protein” value is 0.3%. The “IC50 of pseudovirus infection” value in experiment [2] came out at 0.023 µg/mL.

B3: Ab176 (antibody, V domains shown)
VH: EVQLVESGGGLVQPGGSLRLSCAASGFTFSSYSMNWVRQAPGKGLEWVSYISGSSSTIYYADSVKGRFTISRDNAKNSLYLQMNSLRAEDTAVYYCVSSEWLLPRFFDYWGQGTLVTVSS
VL: QPVLTQEASVSGTVGQKVTLSCTGNRNNIGSYPVGWYQQISHGAPKTVMFGNSPPSGIPDRFFGSRSGTTASLTISGLQPEDEADYYCSTWDYSLSAVVFGGGTKLTVL
Take B3: the “binding amount (%) of ACE2 protein” value in experiment [1] turned out to be 8.3%. In addition, the figures for the “fluorescence of ACE2 protein” value in experiment [3], in experiment [4] and in experiment [5] were 366, 2660 and 1190, respectively.

B4: Ab315 (antibody, V domains shown)
VH: EVQLLESGGGLIQPGGSLRLSCAASGLIVSSNYMSWVRQAPGKGLEWVSVIYSGGSTYYADSVKGRFISSRDNSKNTLYLQMNSLRAEDTAVYYCARGELDLPYGMDVWGQGTTVTVSS
VL: QAVVTQPPSVSAAPGQKVTISCSGSSSNIGNNYVSWYQQLPGTAPKLLICDTNKRPSGIPDRFSGSKSGTSATLGITGLQTGDEADYYCGTWDRSLSAGVFGGGTKLTVL
On to B4, for which the “binding amount (%) of ACE2 protein” value in experiment [1] was 5.2%. The “fluorescence of ACE2 protein” value in experiment [3] amounted to 160; in experiment [4], 927; in experiment [5], 307.

B5: Ab374 (antibody, V domains shown)
VH: EVQLVESGGGLIQPGGSLRLSCVASGFTVSSNYLAWVRQAPGQGLEWVSLIYPGGSTFYADSVKGRFTISRGNSNNTLYLQLNSLRTEDTAVYYCASLYRRGGDSWGQGTLVTVSS
VL: DIQMTQSPSSLSASVGDRVTITCQASQDIRNYLNWYQQKPGKAPKLLIYDASNLQTGVPSRFSGRGSGTDFTFTISSLQAEDIATYYCQQYDNLPITFGQGTRLEIK
Take B5: the “binding amount (%) of ACE2 protein” value in experiment [1] is 10.1%. Also, the figures for the “fluorescence of ACE2 protein” value in experiment [3], in experiment [4] and in experiment [5] were 244, 1360 and 429, respectively.

B6: Ab709TK (antibody, V domains shown)
VH: QVQLVESGGGVVQPGKSLRLSCAASGFTFSSYAMHWVRLAPGKGLEWVAVISPDGKNKYYVDSVKGRSTISRDNSKNTLYLLMNSLRAEDTAVYYCATTQSLWFGQFYYIYGMDVWGQGTTVTVSS
VL: QSVLTQPHSVSESPGKTITISCTGSSGSIASNYVQWYQQRPGSAPTTVIYEDTERPSGVPDRFSGSIDSSSNSASLTISGLKTEDEADYYCQSYDSNNVVFGGGTKLTVL
As for B6, in experiment [1], the “binding amount (%) of ACE2 protein” value worked out at 0.6%. Besides, the “IC50 of pseudovirus infection” value in experiment [2] came to 0.0717 µg/mL.

B7: Ab863 (antibody, V domains shown)
VH: EVQLVQSGAEVKKPGASVKVSCQASGYTFITYYMHWVRQAPGQGLEWMGIINPDGGSISYAQKFQGRVTMTRDTSTSTVYMELSSLRSEDTAVYYCARGLSPTFSSSWFDNWGLGTLVTVSS
VL: DVVMTQSPATLSVSPGERATLSCRASQSVSSNLAWYQQKPGQAPRLLIYGASTRDTGIPARFSGSGSGTEFTLTISSLQSEDFAVYFCQQYKNWLLTFGGGTKVEIK
Turning to B7, the “binding amount (%) of ACE2 protein” value in experiment [1] came to 1.7%.

B8: Ab175 (antibody, V domains shown)
VH: EVQLVESGGGLVQPGGSLRLSCAASGIIVSSNYMTWVRQAPGKGLEWVSVLYSGGSTFYADSVKGRFTISRDNSKNMLYLQMNSLRAEDTAVYYCARDLQELGVDCWGQGTLVTVSS
VL: DIQLTQSPSFLSASVGDRVTITCRASQGISSYLAWYQQKPGKAPKLLIYAASTLQSGVPSRFSGSGSGTEFTLTISSLQPEDFATYYCQQLDSYPRFGGGTKVEIK
B8: the “binding amount (%) of ACE2 protein” value in experiment [1] stood at 6.9%. Also, the “fluorescence of ACE2 protein” value in experiment [4] turned out to be 1660; in experiment [5], 439.

B9: Ab114 (antibody, V domains shown)
VH: EVQLVESGGGLIQPGGSLRLSCAASGFTVSSNYMNWVRQAPGKGLEWVSVIYSGGSTFYADSVKGRFTISRDNSKNTLYLQMNSLRVEDTAVYYCARDLDTQGGMDVWGQGTTVTVSS
VL: EIVLTQSPGSLSLSPGERATLSCRASQGVSSSYLAWYQHKPGQAPRLLIFGASTRATGIPDRFSGSGSGTDFTLTISRLEPEDFAVYYCQLYGSSPGTFGQGTKLEIK
As to B9, the “binding amount (%) of ACE2 protein” value in experiment [1] turned out to be 10.9%. Besides, the entries for the “fluorescence of ACE2 protein” value in experiment [3], in experiment [4] and in experiment [5] were 672, 3900 and 2040, respectively.

B10: Ab765 (antibody, V domains shown)
VH: QVQLVESGGGVVQPGRSLRLSCAASGFTFSDYAIHWVRQAPGRGLEPVALISYDGNNKYYADSVKGRFTISRDNSKNVLYLQMNSLRADDTAVYYCARDAEGGWVAALDYWGQGTLVTVSS
VL: QSALTQPRSVSGSPGQSVTISCTGTSSDVGGYNYVSWYQHHPGKAPKVMIYEVSKRPSGVPDRFSGSKSGTTASLTISGLQAEDEADYYCCSYAGTYPYVFGTGTKVTVL
B10: the “binding amount (%) of ACE2 protein” value in experiment [1] was determined as 0.9%. For the same molecule, in experiment [2], the “IC50 of pseudovirus infection” value turned out to be 0.005 µg/mL.

B11: Ab302 (antibody, V domains shown)
VH: EVQLVESGGGLVQPGGSLRLSCAASGVIVSRNYMTWVRQAPGKGLEWVSVIYSGGSTFYADSVKGRFTISRDNSKNTLYLQMNSLRAEDTAVYYCARDRGEDVFDIWGQGTMVTVSS
VL: DIQLTQSPSSLSASVGDRVTITCRASQGISSYLAWYQQKPGKAPKLLIYAASTLQSGVPSRFSGSGSGTDFTLTISSLQPEDFATYYCQQLNSYPGYTFGQGTKLEIK
As for B11, the “binding amount (%) of ACE2 protein” value in experiment [1] worked out at 4.7%. The results for the “fluorescence of ACE2 protein” value in experiment [3], in experiment [4] and in experiment [5] were 189, 1400 and 372, respectively.

B12: Ab712 (antibody, V domains shown)
VH: QVQLVQSGSELKKPGASVKISCKASGYTFINHAINWVRQAPGQGLEWMGWINTNTGNPTYAPGFTGRFVFSLDTSVSTAYLQISSLKAEDTAVYYCARIPIRDYDYDGSGYYYFLDYWGQGTLVTVSS
VL: SYELTQDPAVSVALGQTVRITCQGDSLRSSSASWYQQKPGQAPVLVIYGKTNRPSGIPDRFSGSSSGNTASLTITGAQAEDEADYYCNSRDNSGNHPVVFGGGTKLTVL
Take B12: the “binding amount (%) of ACE2 protein” value in experiment [1] came out at 4.6%. In experiment [2], the “IC50 of pseudovirus infection” value was determined as 0.105 µg/mL.
